The series concerns the molecule itself. Put plainly: cryo-EM structure; complex of HDAC1, MIDEAS ELM2-SANT and DNTTIP1 lacking the DNA-binding domain; 50 µM SAHA and 50 µM InsP6, glutaraldehyde cross-linked on ice; dimer map ~4 Å (C2) and tetramer map 4.5 Å (D2) from the same grids.

B1: ELM2-SANT domain from MIDEAS (domain or fragment, UniProt Q6PJG2 717-887, looked up)
chain: VSIEPRINVGSRFQAEIPLMRDRALAAADPHKADLVWQPWEDLESSREKQRQVEDLLTAACSSIFPGAGTNQELALHCLHESRGDILETLNKLLLKKPLRPHNHPLATYHYTGSDQWKMAERKLFNKGIAIYKKDFFLVQKLIQTKTVAQCVEFYYTYKKQVKIGRNGTLT
notes: MIDEAS (ELMSAN1, c14orf43) ELM2-SANT domain; The tag is followed by a TEV protease cleavage site; TEV released the complex from the anti-FLAG resin; also called MIDEAS co-repressor protein; not shown: 10xHis, N-terminal, cleaved; 3xFLAG, N-terminal, cleaved
As to B1, the binding result was “binds”.

Source of the values: article PMC7319964, “The MiDAC histone deacetylase complex is essential for embryonic development and has a unique multivalent structure” (Nature Communications, 2020).
